Key:
[1] = tested on: TRUC mice; assay: TRUC mouse chronic colitis model, in vivo treatments; settings: TRUC Il22−/− mice
Description: In vivo treatments: Neutralizing anti-IL-22 mAb (clone IL22-01) and recombinant IL-22 (rIL-22) were developed and provided by Pfizer. […] of IL22-01 (per mouse) were administered i.p. every 3 to 4 days. […] of rIL-22 (per mouse) were administered i.p. at days 0, 4, 8 and 12, while mice were culled at day 14. Anti-CXCR2 (clone 242216, R&D Systems) was administered i.p. at a dose of […] per mouse at days 0, 3, 7, 10 and 14, while mice were culled at day 15.
Isolation of colonic LP leukocytes (cLPMCs): Mice were euthanized by either cervical dislocation or by a rising concentration of carbon dioxide gas, and then dissected in a laminar flow cabinet under aseptic conditions. Colons were opened longitudinally, cleaned thoroughly with ice-cold PBS and cut into 1-2 mm pieces and washed with 10 ml 5 mM EDTA, 1 mM Hepes in HBSS (Gibco; Gaithersburg, Md.) in a shaking water bath (300 rpm) at 37° C. for 20 min. Tissue was then vortexed vigorously for 10 seconds and passed through a […] cell strainer and collected in Ctubes (Miltenyi; Bergisch Gladbach, Germany) in complete RPMI (Gibco) containing 10% fetal calf serum, 0.25 mg/ml Collagenase D (Roche; Basel, Switzerland), 1.5 mg/ml Dispase II (Roche) and […] DNase (Roche) and put in a shaking water bath (300 rpm) at 37° C. for 40 minutes. Before and after the 40 minute incubation C-tubes were vigorously shaken for 30 seconds. Solutions were then passed through […] cell strainers and washed with ice-cold PBS. […] Cells were resuspended in 1 ml PBS, counted, and immediately used for further experiments.
Gene expression analysis: Whole tissue colonic fragments or sorted cells were lysed in 1 ml TRIsure (Bioline) and stored at −80° C. pending further processing. […] Concentration of RNA in each sample was measured using NanoDrop. […] Quantitative PCR was performed using QuantiTect primers (Qiagen) and Quantitect SybrGreen MasterMix (Qiagen) on a LightCycler 480 (Roche). Samples were analyzed in triplicates and relative expression of mRNAs was determined after normalization against the housekeeping gene Beta-2-Microglobulin (B2M). […]

[2] = tested on: human colonoids; assay: Cytokine treatment of human colonoids, RNA-seq; assay type: cell-based
Description: All patients provided informed consent (NRES/IRAS id:15/LO/1998). Subsequent establishment of human colonoids was performed as previously described by Sato et al (48). The crypts were cultured in growth medium containing advanced Dulbecco's modified Eagle's medium/F12, penicillin/streptomycin (100 units/mL), 10 mM HEPES, 2 mM Glutamax, supplements N2 (1×) and B27 (1×), 50 ng/mL mouse epidermal growth factor (all from Life Technologies; Carlsbad, Calif.), 1 mM N-acetylcysteine (Sigma-Aldrich; St. Louis, Mo.), 50% v/v Wnt3a conditioned medium, 10% v/v R-spondin-1 conditioned medium, 100 ng/mL murine recombinant noggin protein (Peprotech; Rocky Hill, N.J.), 10 nM gastrin (Sigma-Aldrich), 500 nM A83-01 (Bio-techne; Minneapolis, Minn.), 10 μM SB202190 (Sigma-Aldrich) and 10 mM Nicotinamide (Sigma-Aldrich). 10 μM Y-27632 (Sigma-Aldrich) was added to the culture medium for the initial 3 days. Medium was changed every 2 days. […] During the last 24 hours in differentiation medium, human colonoids were treated with human recombinant IL22 (10 ng/mL), IL17A (50 ng/mL), TNFα (10 ng/mL), IFNγ (20 ng/mL), IL13 (10 ng/mL) and IL22 (10 ng/mL)/IL17A (50 ng/mL) combination.
RNA extraction: Colonoids and LPMC were treated in a similar fashion. Cells were lysed and RNA was extracted using the RNAeasy kit (Qiagen; Hilden, Germany). This step was optimized balancing the effectiveness of elimination of DNA quantified (Qubit dsDNA HS assay kit) versus the loss of quantity of RNA (Qubit RNA BR assay kit). Optimal DNAse I concentration was determined to be ×5 the standard concentration. 500 ng of cDNA was then created using Revertaid cDNA synthesis kit (ThermoFisher) and diluted to a concentration of 6.25 ng/μl. Harvested colonoids were put in Qiazol and then RNA was extracted with the RNAeasy kit (Qiagen) as per manufacturer's guidelines. cDNA was created using the Revertaid cDNA synthesis kit (ThermoFisher).
Library preparation and sequencing: A total amount of 3 μg RNA per sample was used as input material for the RNA sample preparations. Sequencing libraries were generated using NEBNextR Ultra™ RNA Library Prep Kit for IlluminaR (NEB, Ipswich, Mass.) following manufacturer's recommendations and index codes were added to attribute sequences to each sample. Briefly, mRNA was purified from total RNA using poly-T oligo-attached magnetic beads. Fragmentation was carried out using divalent cations under elevated temperature in NEBNext First Strand Synthesis Reaction Buffer (5×). First strand cDNA was synthesized using random hexamer primer and M-MuLV Reverse Transcriptase (RNase H-). Second strand cDNA synthesis was subsequently performed using DNA Polymerase I and RNase H. Remaining overhangs were converted into blunt ends via exonuclease/polymerase activities. After adenylation of 3′ ends of DNA fragments, NEBNext Adaptor with hairpin loop structure were ligated to prepare for hybridization. In order to select cDNA fragments of preferentially 150˜200 bp in length, the library fragments were purified with AMPure XP system (Beckman Coulter, Brea, Calif.). Then 3 μl USER Enzyme (NEB) was used with size-selected, adaptor-ligated cDNA at 37° C. for 15 minutes followed by 5 minutes at 95° C. before PCR. Then PCR was performed with Phusion High-Fidelity DNA polymerase, Universal PCR primers and Index (X) Primer. At last, PCR products were purified (AMPure XP system) and library quality was assessed on the Agilent Bioanalyzer 2100 system. The clustering of the index-coded samples was performed on a cBot Cluster Generation System using HiSeq PE Cluster Kit cBot-HS (Illumina; San Diego, Calif.) according to the manufacturer's instructions. After cluster generation, the paired-end libraries were sequenced on an Illumina HiSeq platform. […]

[3] = tested on: mouse colonic organoids; assay: IL22 treatment of mouse colonic organoids, chemokine expression; assay type: cell-based
Description: Mouse colonoids were cultured in the same medium as above but without gastrin SB202190, Nicotinamide, A83-01 and with the addition of 3 μM CHIR99021 (Cambridge Biosciences; Cambridge, United Kingdom). To differentiate them, Wnt3a was withdrawn for 3 days. During the last 24 hours in differentiation medium, mouse colonoids were treated with mouse recombinant IL22 (10 ng/mL) and IL17A (50 ng/mL).
Next, whether IL22 mediated regulation of neutrophil-active chemokine expression was functionally important in colitis was investigated. First, it was evaluated whether IL22 mediated regulation of human colonic epithelial function was conserved across species. […] In the CC family of chemokines, induction of Ccl7 and weaker induction of Ccl2 by IL22, with little or no impact on other CC family members, was observed. These findings were validated using real time PCR, which confirmed time and dose dependent induction of CXC-family chemokine transcripts. As observed in human colonoids, IL22 induced expression of Cxcl1 and Cxcl5, and was synergistically augmented by IL17A. These observations were confirmed at the protein level by measuring chemokine production in supernatants of murine colonic organoids cultured with recombinant mouse cytokines.

Molecule | Cxcl1 and Cxcl5 expression in the colon [1] | disease activity (colitis) [1] | neutrophil recruitment in the colon [1] | downregulated transcripts ([2]; FDR<0.01) | upregulated transcripts ([2]; FDR<0.01) | differentially expressed transcripts ([2]; IL22 10 ng/mL, 24 hours, FDR<0.01) | regulation of chemokine expression ([2]; human colonoids, 24 hours) | transcripts uniquely regulated by IL22 ([2]; of the 1251 IL22-regulated transcripts) | regulation of chemokine expression [3]
rIL22: recombinant IL-22 developed and provided by Pfizer, given i.p. to mice | reinstated | restored colitis | restored excessive neutrophil recruitment |  |  |  |  |  | 
IL22: human recombinant IL22 (10 ng/mL) on human colonoids; mouse recombinant IL22 on mouse colonoids (protein, UniProt Q9GZX6 34-179, looked up) Interleukin-22: APISSHCRLDKSNFQQPYITNRTFMLAKEASLADNNTDVRLIGEKLFHGVSMSERCYLMKQVLNFTLEEVLFPQSDRFQPYMQEVVPFLARLSNRLSTCHIEGDDLHIQRNVQKLKDTVKKLGESGEIKAIGELDLLFMSLRNACI |  |  |  | 672 | 579 | 1251 transcripts | preferentially upregulated the neutrophil-active CXC family chemokines CXCL1, CXCL2, CXCL3, CXCL4, CXCL5, CXCL6 and CXCL8 | 322 | selectively induced expression of the neutrophil-active chemokines Cxcl1, Cxcl3 and Cxcl5

Source: patent US20220291238A1, “Methods for Predicting Treatment Response in Ulcerative Colitis” (Janssen Biotech, Inc., priority 2021, published 2022)
